Columns and labels:
[1] = target: T1, XPF (truncated);ERCC1 (truncated) (human;human, UniProt Q92889;P07992 640-916;93-297, |); experiment: fluorescence anisotropy; mwPIFE, room temp, 30 min: BamHI 10 mM Tris-HCl pH 8, 100 mM KCl, 0.02% Triton X-100, 0.1 mg/ml BSA, 5 mM EDTA/MgCl2/CaCl2; Ku 35 mM Tris-Cl pH 7.9, 5.5% glycerol, 150 mM KCl, 1 mM EDTA, 0.1 mM DTT, 1.5 mM imidazole; XPF/ERCC1 10 mM Tris-Cl pH 8, 10 mM NaCl. FA: 10 mM Tris-HCl pH 8, 10 mM NaCl, 10% glycerol, 1 mM TCEP, 50 nM DNA, 25 C; settings: protein: recombinant;recombinant, tags: none;GST-His6 N-terminal, removed by TEV, copies: 1;1
T1 sequence 1: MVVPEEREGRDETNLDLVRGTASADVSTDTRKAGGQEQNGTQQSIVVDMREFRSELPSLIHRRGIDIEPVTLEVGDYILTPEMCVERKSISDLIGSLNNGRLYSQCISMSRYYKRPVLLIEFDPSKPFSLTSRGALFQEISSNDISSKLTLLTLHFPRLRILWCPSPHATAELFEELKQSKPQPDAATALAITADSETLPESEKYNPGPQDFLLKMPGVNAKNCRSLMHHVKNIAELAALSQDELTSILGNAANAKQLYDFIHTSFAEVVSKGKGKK
T1 sequence 2: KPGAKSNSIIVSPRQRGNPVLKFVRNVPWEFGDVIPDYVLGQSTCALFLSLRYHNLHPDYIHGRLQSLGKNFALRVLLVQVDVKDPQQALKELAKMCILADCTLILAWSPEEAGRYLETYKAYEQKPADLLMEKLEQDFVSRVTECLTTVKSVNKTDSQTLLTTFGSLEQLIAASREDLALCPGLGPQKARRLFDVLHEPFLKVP

Ku70;Ku80 [2] = target: T2, Ku70;Ku80 (human;human, UniProt P12956;P13010 1-609;1-732, |); experiment: mwPIFE; mwPIFE, room temp, 30 min: BamHI 10 mM Tris-HCl pH 8, 100 mM KCl, 0.02% Triton X-100, 0.1 mg/ml BSA, 5 mM EDTA/MgCl2/CaCl2; Ku 35 mM Tris-Cl pH 7.9, 5.5% glycerol, 150 mM KCl, 1 mM EDTA, 0.1 mM DTT, 1.5 mM imidazole; XPF/ERCC1 10 mM Tris-Cl pH 8, 10 mM NaCl. FA: 10 mM Tris-HCl pH 8, 10 mM NaCl, 10% glycerol, 1 mM TCEP, 50 nM DNA, 25 C; settings: protein: recombinant;recombinant, tags: ;, copies: 1;1, label: 5' biotin strand 1, blunt
T2 sequence (P12956 whole entry, chain 1 of 2): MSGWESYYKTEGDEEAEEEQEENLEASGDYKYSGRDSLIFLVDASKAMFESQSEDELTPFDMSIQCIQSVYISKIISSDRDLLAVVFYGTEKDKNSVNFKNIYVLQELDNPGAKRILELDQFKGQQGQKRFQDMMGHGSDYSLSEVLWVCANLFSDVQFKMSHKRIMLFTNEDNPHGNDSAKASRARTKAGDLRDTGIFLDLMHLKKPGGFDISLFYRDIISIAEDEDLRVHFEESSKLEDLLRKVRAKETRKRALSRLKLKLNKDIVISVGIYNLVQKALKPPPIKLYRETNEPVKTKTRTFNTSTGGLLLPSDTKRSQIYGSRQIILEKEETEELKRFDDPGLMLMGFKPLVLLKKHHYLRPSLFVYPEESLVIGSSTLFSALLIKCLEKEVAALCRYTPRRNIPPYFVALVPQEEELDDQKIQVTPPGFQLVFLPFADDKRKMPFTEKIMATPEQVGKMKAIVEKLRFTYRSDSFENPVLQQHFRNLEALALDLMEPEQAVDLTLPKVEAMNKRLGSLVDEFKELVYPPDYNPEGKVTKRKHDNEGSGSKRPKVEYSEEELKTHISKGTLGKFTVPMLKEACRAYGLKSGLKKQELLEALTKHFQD
T2 sequence (P13010 whole entry, chain 2 of 2): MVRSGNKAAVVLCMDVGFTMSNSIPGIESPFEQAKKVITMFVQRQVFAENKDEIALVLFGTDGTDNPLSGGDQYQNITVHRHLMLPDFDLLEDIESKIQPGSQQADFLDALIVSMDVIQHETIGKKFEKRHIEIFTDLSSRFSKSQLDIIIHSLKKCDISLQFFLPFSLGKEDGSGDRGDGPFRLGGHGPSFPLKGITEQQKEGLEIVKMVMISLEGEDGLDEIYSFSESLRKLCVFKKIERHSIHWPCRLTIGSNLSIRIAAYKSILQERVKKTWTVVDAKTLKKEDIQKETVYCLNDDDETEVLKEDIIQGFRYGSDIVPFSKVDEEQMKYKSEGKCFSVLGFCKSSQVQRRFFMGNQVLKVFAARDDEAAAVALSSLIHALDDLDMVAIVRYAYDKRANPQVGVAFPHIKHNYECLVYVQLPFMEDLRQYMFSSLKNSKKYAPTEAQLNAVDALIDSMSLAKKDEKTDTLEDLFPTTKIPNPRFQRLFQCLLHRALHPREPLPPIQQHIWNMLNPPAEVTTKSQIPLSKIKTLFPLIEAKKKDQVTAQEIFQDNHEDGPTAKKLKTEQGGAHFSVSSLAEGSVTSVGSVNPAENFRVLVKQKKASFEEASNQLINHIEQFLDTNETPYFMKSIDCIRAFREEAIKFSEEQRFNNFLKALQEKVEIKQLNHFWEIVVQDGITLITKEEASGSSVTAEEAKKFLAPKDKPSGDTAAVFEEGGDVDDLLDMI

Ku70;Ku80 [3] = target: T2, Ku70;Ku80; experiment: as above; settings: protein: recombinant;recombinant; tags: ;; copies: 1;1; label: 5' biotin strand 1; 5' Cy3 strand 2; blunt
[4] = target: T3, BamHI restriction endonuclease (UniProt P23940 1-213); experiment: mwPIFE; 5 mM Ca2+; mwPIFE, room temp, 30 min: BamHI 10 mM Tris-HCl pH 8, 100 mM KCl, 0.02% Triton X-100, 0.1 mg/ml BSA, 5 mM EDTA/MgCl2/CaCl2; Ku 35 mM Tris-Cl pH 7.9, 5.5% glycerol, 150 mM KCl, 1 mM EDTA, 0.1 mM DTT, 1.5 mM imidazole; XPF/ERCC1 10 mM Tris-Cl pH 8, 10 mM NaCl. FA: 10 mM Tris-HCl pH 8, 10 mM NaCl, 10% glycerol, 1 mM TCEP, 50 nM DNA, 25 C; settings: protein: commercial; chain copies: 2; label: 5' biotin strand 1; 5' Cy3 strand 2; blunt
T3 sequence: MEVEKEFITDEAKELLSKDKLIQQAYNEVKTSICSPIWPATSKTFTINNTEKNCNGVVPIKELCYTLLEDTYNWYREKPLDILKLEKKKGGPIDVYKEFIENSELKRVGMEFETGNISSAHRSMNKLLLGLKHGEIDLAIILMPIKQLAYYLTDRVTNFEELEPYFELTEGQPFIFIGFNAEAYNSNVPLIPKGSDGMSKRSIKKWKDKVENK

[5] = target: T3, BamHI restriction endonuclease; experiment: competition; Ca2+; mwPIFE, 1-10x excess; mwPIFE, room temp, 30 min: BamHI 10 mM Tris-HCl pH 8, 100 mM KCl, 0.02% Triton X-100, 0.1 mg/ml BSA, 5 mM EDTA/MgCl2/CaCl2; Ku 35 mM Tris-Cl pH 7.9, 5.5% glycerol, 150 mM KCl, 1 mM EDTA, 0.1 mM DTT, 1.5 mM imidazole; XPF/ERCC1 10 mM Tris-Cl pH 8, 10 mM NaCl. FA: 10 mM Tris-HCl pH 8, 10 mM NaCl, 10% glycerol, 1 mM TCEP, 50 nM DNA, 25 C; settings: protein: commercial; chain copies: 2; blunt
Ku70;Ku80 [6] = target: T2, Ku70;Ku80; experiment: mwPIFE; internal Cy3, lower PIFE than terminal; mwPIFE, room temp, 30 min: BamHI 10 mM Tris-HCl pH 8, 100 mM KCl, 0.02% Triton X-100, 0.1 mg/ml BSA, 5 mM EDTA/MgCl2/CaCl2; Ku 35 mM Tris-Cl pH 7.9, 5.5% glycerol, 150 mM KCl, 1 mM EDTA, 0.1 mM DTT, 1.5 mM imidazole; XPF/ERCC1 10 mM Tris-Cl pH 8, 10 mM NaCl. FA: 10 mM Tris-HCl pH 8, 10 mM NaCl, 10% glycerol, 1 mM TCEP, 50 nM DNA, 25 C; settings: protein: recombinant;recombinant; tags: ;; copies: 1;1; label: 5' biotin-TEG strand 1; 3' biotin-TEG strand 2; iCy3; blunt; one end free
Ku70;Ku80 [7] = target: T2, Ku70;Ku80; experiment: mwPIFE; internal Cy3, PIFE falls with distance from free end; mwPIFE, room temp, 30 min: BamHI 10 mM Tris-HCl pH 8, 100 mM KCl, 0.02% Triton X-100, 0.1 mg/ml BSA, 5 mM EDTA/MgCl2/CaCl2; Ku 35 mM Tris-Cl pH 7.9, 5.5% glycerol, 150 mM KCl, 1 mM EDTA, 0.1 mM DTT, 1.5 mM imidazole; XPF/ERCC1 10 mM Tris-Cl pH 8, 10 mM NaCl. FA: 10 mM Tris-HCl pH 8, 10 mM NaCl, 10% glycerol, 1 mM TCEP, 50 nM DNA, 25 C; settings: protein: recombinant;recombinant; tags: ;; copies: 1;1; label: 5' biotin-TEG strand 1; 3' biotin-TEG strand 2; iCy3; blunt; one end free

## CAGCGCTCGGTTTTTTTTTTTTTTTTTTTTCCGAGCGCTG (structured_DNA) [HP (stem-loop)]
[1]; hairpin
  Kd: 640 ± 100 nM

B1: Y (splayed arm) (structured_DNA)
DNA 1: CAGCGCTCGGTTTTTTTTTT
DNA 2: TTTTTTTTTTCCGAGCGCTG
[1]; fork 1:2, 10 bp duplex with two T10 arms
  Kd: 810 ± 100 nM

B2: Btn_11_f/Cy3_11_r (dsDNA)
DNA 1: AGATAGAGCCA
DNA 2: TGGCTCTATCT
Ku70;Ku80 [2]
  binding signal: 7 % PIFE

B3: Btn_12_f/Cy3_12_r (dsDNA)
DNA 1: TAGATAGAGCCA
DNA 2: TGGCTCTATCTA
Ku70;Ku80 [2]
  binding signal: 20 % PIFE

B4: Btn_13_f/Cy3_13_r (dsDNA)
DNA 1: CTAGATAGAGCCA
DNA 2: TGGCTCTATCTAG
Ku70;Ku80 [2]
  binding signal: ~50 % PIFE

B5: Btn_14_f/Cy3_14_r (dsDNA)
DNA 1: CCTAGATAGAGCCA
DNA 2: TGGCTCTATCTAGG
Ku70;Ku80 [2]
  binding signal: ~50 % PIFE

B6: Btn_15_f/Cy3_15_r (dsDNA)
DNA 1: ACCTAGATAGAGCCA
DNA 2: TGGCTCTATCTAGGT
Ku70;Ku80 [2]; 5' Cy3 strand 2
  binding signal: ~50 % PIFE
Ku70;Ku80 [3]
  Kd: 10 ± 5 nM

B7: C_f/C_r (no BamHI site) (dsDNA)
DNA 1: CACAACGACCACCTAGATAGAGCCAAGCAGTTTACGTACCGTCATTCCCTTCCACGTCATCGAGCTACCGTCGTC
DNA 2: GACGACGGTAGCTCGATGACGTGGAAGGGAATGACGGTACGTAAACTGCTTGGCTCTATCTAGGTGGTCGTTGTG
[4]
  binding result: no binding

B8: B-GC competitor (substitutions outside site) (dsDNA)
DNA 1: CACAACGCCGGATCCGGCCTAGAT
DNA 2: ATCTAGGCCGGATCCGGCGTTGTG
[5]
  binding result: binds

B9: B-GC* competitor (one base changed in BamHI site) (dsDNA)
DNA 1: CACAACGCCTGATCCGGCCTAGAT
DNA 2: ATCTAGGCCGGATCAGGCGTTGTG
[5]
  binding result: no binding

B10: scr competitor (no BamHI site) (dsDNA)
DNA 1: CCGTCCAACAGCGAGGCTGATTAAAGAATTCG
DNA 2: CGAATTCTTTAATCAGCCTCGCTGTTGGACGG
[5]
  binding result: no binding

B11: 10ds (dsDNA)
DNA 1: CAGCGCTCGG
DNA 2: CCGAGCGCT
[1]; 5' overhang 1 nt on strand 1 as printed (meant blunt)
  Kd: 4750 ± 800 nM

B12: BtnT_15_Cy3_15 (internal Cy3 15 nt from free end) (dsDNA)
DNA 1: TTGCATCCTTCACAACGACCACCTAGATAG
DNA 2: CTATCTAGGTGGTCGTTGTGAAGGATGCAA
modifications: internal Cy3 after nt 15 of strand 1
Ku70;Ku80 [6]
  binding result: binds

B13: BtnT_15_Cy3_60 (internal Cy3 60 nt from free end) (dsDNA)
DNA 1: TTGCATCCTTCACAACGACCACCTAGATAGAGCCAAGCAGTTTACGTACCGTCATTCCCTTCCACGTCATCGAGC
DNA 2: GCTCGATGACGTGGAAGGGAATGACGGTACGTAAACTGCTTGGCTCTATCTAGGTGGTCGTTGTGAAGGATGCAA
modifications: internal Cy3 after nt 15 of strand 1
Ku70;Ku80 [7]
  binding result: binds

B14: Btn_25BamHI1_f/Cy3_25BamHI1_r (dsDNA)
DNA 1: CACAACGACCACCTAGATGGATCCA
DNA 2: TGGATCCATCTAGGTGGTCGTTGTG
[4]
  binding result: binds
